Assay results taken from patent US20240059797A1 (GRITSTONE BIO, published 2024).
Changes are numbered by the printed parent chain. Blank lines part the entries; values can stand above or below the binder they belong to.

Assays:
[1] = molecular target: HLA-A*02:01_… (HLA-PEPTIDE target G7), recombinant biotinylated complex (human, enzymatically biotinylated (BirA)); test: phage panning, scFv ELISA
Description: Phage library screening was carried out according to the overall screening design described above. Three to four rounds of bead-based panning were performed to identify scFv binders to each peptide-HLA complex. For each round of panning, an aliquot of starting phage was set aside for input titering and the remaining phage was depleted three times against Dynabead M-280 streptavidin beads (Life Technologies) followed by a depletion against Streptavidin beads pre-bound with 100 μmoles of pooled negative peptide-HLA complexes. For the first round of panning, 100 μmoles of peptide-HLA complex bound to streptavidin beads was incubated with depleted phage for 2 hours at room temperature with rotation. Three five-minute washes with 0.5% BSA in 1×PBST (PBS+0.05% Tween-20) followed by three five-minute washes with 0.5% BSA in 1×PBS were utilized to remove any unbound phage to the peptide-HLA complex bound beads. To elute the bound phage from the washed beads, 1 ml 0.1M TEA was added and incubated for 10 minutes at room temperature with rotation. The eluted phage was collected from the beads and neutralized with 0.5 ml 1M Tris-HCl pH 7.5. The neutralized phage was then used to infect log growth TG-1 cells (OD₆₀₀=0.5) and after an hour of infection at 37° C., cells were plated onto 2YT media with 100 μg/ml carbenicillin and 2% glucose (2YTCG) agar plates for output titer and bacterial growth for subsequent panning rounds.
96-well and/or 384-well streptavidin coated plates (Pierce) were coated with 2 μg/ml peptide-HLA complex in HLA buffer and incubated overnight at 4° C. Plates were washed three times between each step with PBST (PBS+0.05%). The antigen coated plates were blocked with 3% BSA in PBS (blocking buffer) for 1 hour at room temperature. After washing, scFv PPEs were added to the plates and incubated at room temperature for 1 hour. Following washing, mouse anti-v5 antibody (Invitrogen) in blocking buffer was added to detect scFv and incubated at room temperature for 1 hour. After washing, HRP-goat anti-mouse antibody (Jackson ImmunoResearch) was added and incubated at room temperature for 1 hour.

[2] = molecular target: HLA-A*01:01_… (HLA-PEPTIDE target G10), recombinant biotinylated complex (human, enzymatically biotinylated (BirA)); test: BLI, pHLA on sensor, Fab titrated, 1:1 model
Description: Binding affinity was assessed by bio-layer interferometry (BLI) using an Octet Qke (ForteBio). Briefly, biotinylated pHLA complexes in kinetics buffer were loaded onto streptavidin sensors for 300 seconds, at concentrations which gave the optimal nm shift response (approximately 0.6 nm) for each Fab at the highest concentration used. The ligand-loaded tips were subsequently equilibrated in the kinetics buffer for 120 seconds. The ligand-loaded biosensors were then dipped for 200 seconds in the Fab solution titrated into 2-fold dilutions. […] The dissociation step in the kinetics buffer was measured for 200 seconds. Data were analyzed using the ForteBio data analysis software using a 1:1 binding model.

[3] = molecular target: T1, HLA-A*01:01_… (HLA-PEPTIDE target G2), recombinant biotinylated complex (human, enzymatically biotinylated (BirA)); test: BLI (ForteBio Octet HTX), biotinylated G2-pHLA captured on streptavidin SAX biosensor, bispecific in solution, 1:1 Fit
T1 construct: also called G2-pHLA
Excerpt: (§1) The biosensors were then dipped in assay buffer for a baseline. […] The biosensors were finally dipped into wells containing assay buffer to measure the dissociation rate for another 50 seconds. Referencing was completed by having a biosensor with no immobilized ligand dipped into analyte. Kinetic data was processed with Octet™ software using a 1:1 kinetic model with errors within 10%, X² below 3, and R² above 0.9.

[4] = molecular target: T1, HLA-A*01:01_… (HLA-PEPTIDE target G2), …; test: BLI (ForteBio Octet HTX), biotinylated G2-pHLA captured on streptavidin SAX biosensor, bispecific in solution, 1:2 Fit
[5] = molecular target: T2, HLA-A*01:01_… (G2) presented on cells (human); test: flow cytometry, A375 cells expressing the G2 peptide
T2 construct: whole, on cells; K562 transduced with HLA-A*01:01 and pulsed with peptide, or A375 transduced with a 10x peptide cassette; also called G2 on K562 or A375 cells
Description: Tumor cells engineered to express target peptide were harvested, washed in PBS, and stained with eBioscience Fixable Viability Dye eFluor 450 for 15 minutes at room temperature. Following another wash in PBS+1-2% FBS, cells were resuspended with the indicated molecules at varying concentrations and incubated for 1 hour at 4° C. After another wash, PE-conjugated goat anti-human IgG secondary antibody (Jackson ImmunoResearch) was added at 1:100 to 1:200 for 30 minutes at 4° C. After washing in PBS+1-2% FBS, cells were resuspended in PBS+1-2% FBS and analyzed by flow cytometry. Flow cytometric analysis was performed on the Attune NxT Flow Cytometer (ThermoFisher) using the Attune NxT Software. Data was analyzed using FlowJo.

[6] = molecular target: T1, HLA-A*01:01_… (HLA-PEPTIDE target G2), …; test: BLI (Octet HTX), biotinylated pHLA on SAX sensor, 1:1 model
Description: (§2) The affinity of wildtype and DSB mutants were analyzed on the ForteBio Octet HTX in 96-channel mode with biolayer interferometry (BLI) detection. […] The biosensors were then dipped in assay buffer for a baseline. […] The biosensors were finally dipped into wells containing assay buffer to measure the dissociation rate for another 50 seconds. Referencing was completed by having a biosensor with no immobilized ligand dipped into analyte. Kinetic data was processed with Octet™ software using a 1:1 kinetic model with errors within 10%, X² below 3, and R² above 0.9.

[7] = molecular target: T1, HLA-A*01:01_… (HLA-PEPTIDE target G2), …; test: BLI (ForteBio Octet HTX), biotinylated G2-pHLA captured on streptavidin SAX biosensor, bispecific in solution, 1:1 kinetic model
Description: as §2

[8] = molecular target: T3, HLA-B*35:01_… (G5) presented on cells (human); test: flow cytometry on LN229 cells engineered to express the G5 peptide (LN229-G5-9mer), PE anti-human IgG secondary
T3 construct: whole, on cells; also called G5 on K562 or LN229 cells
Description: Cells were harvested, washed in PBS, and stained with eBioscience Fixable Viability Dye eFluor 450 for 15 minutes at room temperature. Following another wash in PBS+2% FBS, cells were resuspended with bispecifics at varying concentrations. Cells were incubated with bispecifics for 1 hour at 4° C. After another wash, PE-conjugated goat anti-human IgG secondary antibody (Jackson ImmunoResearch) was added at 1:100. After incubating at 4° C. for 45 minutes and washing in PBS+2% FBS, cells were resuspended in PBS+2% FBS and analyzed by flow cytometry. Flow cytometric analysis was performed on the Attune NxT Flow Cytometer (ThermoFisher) using the Attune NxT Software. Data was analyzed using FlowJo.

[9] = molecular target: T4, HLA-B*35:01_… (HLA-PEPTIDE target G5), recombinant biotinylated complex (human, enzymatically biotinylated (BirA)); test: BLI (ForteBio Octet HTX), biotinylated G5-pHLA captured on streptavidin SAX biosensor, bispecific in solution, 1:2 Fit
T4 construct: also called G5-pHLA

[10] = molecular target: T4, HLA-B*35:01_… (HLA-PEPTIDE target G5), …; test: BLI (ForteBio Octet HTX), biotinylated G5-pHLA captured on streptavidin SAX biosensor, bispecific in solution, 1:1 Fit
Excerpt: as §1

binding result [1]: binds
B1: G7(1C06) scFv (scFv, V domains shown)
VH: QVQLVQSGAEVKKPGASVKVSCKASGGTFSNYGISWVRQAPGQGLEWMGIINPGGSTSYAQKFQGRVTMTRDTSTSTVYMELSSLRSEDTAVYYCARDGYDFWSGYTSDDYWGQGTLVTVSS
VL: EIVMTQSPATLSVSPGERATLSCRASQSVSSSNLAWYQQKPGQAPRLLIYGASTRATGIPARFSGSGSGTEFTLTISSLQSEDFAVYYCHHYGRSHTFGQGTKVEIK

binding result [1]: binds
B2: G7(1G10) scFv (scFv, V domains shown)
VH: EVQLLESGGGLVQPGGSLRLSCAASGFTFSSYAMHWVRQAPGKGLEWVSGISGSGGSTYYADSVKGRFTISRDNSKNTLYLQMNSLRAEDTAVYYCASDYGDYRGQGTLVTVSS
VL: DIQMTQSPSSLSASVGDRVTITCRASQDIRNDLGWYQQKPGKAPKLLIYAASSLQSGVPSRFSGSGSGTDFTLTISSLQPEDFATYYCQQANAFPPTFGQGTKVEIK

binding result [1]: binds
B3: G7(1F08) scFv (scFv, V domains shown)
VH: EVQLLQSGGGLVQPGGSLRLSCAASGFTFSSSWMHWVRQAPGKGLEWVSFISTSSGYIYYADSVKGRFTISRDNSKNTLYLQMNSLRAEDTAVYYCAKDLATVGEPYYYYGMDVWGQGTTVTVSS
VL: B2 VL with R24Q, R30S, D32Y, G34N, A50S, S53N, Q55R, A91G, A93T, P96L

Kd [2]: 37.5 nM
koff [2]: 0.00615 s⁻¹
kon [2]: 165000 M⁻¹ s⁻¹
B4: G10(1B07) Fab (Fab, V domains shown)
VH: QVQLVQSGAEVKKPGASVKVSCKASGYTFTSYYMHWVRQAPGQGLEWMGIIHPGGGTTSYAQKFQGRVTMTRDTSTSTVYMELSSLRSEDTAVYYCARDKVYGDGFDPWGQGTLVTVSS
VL: B2 VL with D28S, R30S, N31R, D32W, G34A, Y49F, A50D, S53R, N92E, P96Y
notes: Fab

Kd [2]: 428 nM
koff [2]: 0.111 s⁻¹
kon [2]: 477000 M⁻¹ s⁻¹
B5: G10(4E07) Fab (Fab, V domains shown)
VH: QVQLVQSGAEVKKPGSSVKVSCKASGYTFTGYYMHWVRQAPGQGLEWMGRISPSDGSTTYAPKFQGRVTITADESTSTAYMELSSLRSEDTAVYYCARDMGDAFDIWGQGTTVTVSS
VL: not shown
notes: Fab

binding result [1]: binds
B6: G7(3A09) scFv (scFv, V domains shown)
VH: QVQLVQSGAEVKKPGSSVKVSCKASGDTFNTYALSWVRQAPGQGLEWMGWMNPNSGNAGYAQKFQGRVTITADESTSTAYMELSSLRSEDTAVYYCARLWFGELHYYYYYGMDVWGQGTMVTVSS
VL: not shown

Kd [3]: 6.35 nM
koff [3]: 0.00608 s⁻¹
kon [3]: 958000 M⁻¹ s⁻¹
Kd [4]: 301 nM
koff [4]: 0.0746 s⁻¹
kon [4]: 248000 M⁻¹ s⁻¹
B7: 4-G2(1H11)-10AAL hOKT3a (bispecific antibody)
chain: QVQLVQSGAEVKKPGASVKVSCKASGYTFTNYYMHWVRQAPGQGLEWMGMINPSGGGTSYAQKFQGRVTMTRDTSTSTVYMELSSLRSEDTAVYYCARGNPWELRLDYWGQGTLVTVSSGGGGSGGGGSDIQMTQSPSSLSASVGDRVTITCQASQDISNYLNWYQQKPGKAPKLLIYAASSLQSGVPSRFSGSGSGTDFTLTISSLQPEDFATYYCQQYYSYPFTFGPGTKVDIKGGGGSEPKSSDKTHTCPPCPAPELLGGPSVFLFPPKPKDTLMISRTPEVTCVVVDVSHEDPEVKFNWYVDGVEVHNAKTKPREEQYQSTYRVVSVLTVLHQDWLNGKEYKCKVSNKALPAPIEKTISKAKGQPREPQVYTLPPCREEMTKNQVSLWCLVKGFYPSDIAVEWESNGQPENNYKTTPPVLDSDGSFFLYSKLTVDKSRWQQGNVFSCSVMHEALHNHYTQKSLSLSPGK
heavy: QVQLVQSGAEVKKPGASVKVSCKASGYTFTNYYMHWVRQAPGQGLEWMGMINPSGGGTSYAQKFQGRVTMTRDTSTSTVYMELSSLRSEDTAVYYCARGNPWELRLDYWGQGTLVTVSSGGGGSGGGGSDIQMTQSPSSLSASVGDRVTITCQASQDISNYLNWYQQKPGKAPKLLIYAASSLQSGVPSRFSGSGSGTDFTLTISSLQPEDFATYYCQQYYSYPFTFGPGTKVDIKGGGGSGGGGSQVQLVQSGAEVKKPGASVKVSCKASGYTFTRYTMHWVRQAPGQGLEWMGYINPSRGYTNYNQKFKDRVTLTTDKSSSTAYMELSSLRSEDTAVYYCARYYDDHYSLDYWGQGTLVTVSSASTKGPSVFPLAPSSKSTSGGTAALGCLVKDYFPEPVTVSWNSGALTSGVHTFPAVLQSSGLYSLSSVVTVPSSSLGTQTYICNVNHKPSNTKVDKRVEPKSCDKTHTCPPCPAPELLGGPSVFLFPPKPKDTLMISRTPEVTCVVVDVSHEDPEVKFNWYVDGVEVHNAKTKPREEQYQSTYRVVSVLTVLHQDWLNGKEYKCKVSNKALPAPIEKTISKAKGQPREPQVCTLPPSREEMTKNQVSLSCAVKGFYPSDIAVEWESNGQPENNYKTTPPVLDSDGSFFLVSKLTVDKSRWQQGNVFSCSVMHEALHNRFTQKSLSLSPGK
light: DIQMTQSPSSLSASVGDRVTITCSASSSVSYMNWYQQKPGKAPKRLIYDTSKLASGVPSRFSGSGSGTDFTLTISSLQPEDFATYYCQQWSSNPFTFGQGTKLEIKRTVAAPSVFIFPPSDEQLKSGTASVVCLLNNFYPREAKVQWKVDNALQSGNSQESVTEQDSKDSTYSLSSTLTLSKADYEKHKVYACEVTHQGLSSPVTKSFNRGEC
notes: format 4 diabody; also called G2(1H11)-hOKT3a Format 4 with shortened linkers; DAB

EC50 [5]: 9.8 nM
Kd [3]: 30.3 nM
koff [3]: 0.0277 s⁻¹
kon [3]: 913000 M⁻¹ s⁻¹
Kd [6]: 18 nM
koff [7]: 0.00397 s⁻¹
Kd [4]: 1640 nM
koff [4]: 0.324 s⁻¹
kon [4]: 198000 M⁻¹ s⁻¹
B8: 4-hOKT3-G2(1H11) (bispecific antibody, human IgG1, kappa, N297Q)
chain: not shown
heavy: QVQLVQSGAEVKKPGASVKVSCKASGYTFTNYYMHWVRQAPGQGLEWMGMINPSGGGTSYAQKFQGRVTMTRDTSTSTVYMELSSLRSEDTAVYYCARGNPWELRLDYWGQGTLVTVSSGGGGSGGGGSGGGGSGGGGSDIQMTQSPSSLSASVGDRVTITCQASQDISNYLNWYQQKPGKAPKLLIYAASSLQSGVPSRFSGSGSGTDFTLTISSLQPEDFATYYCQQYYSYPFTFGPGTKVDIKGGGGSGGGGSQVQLVQSGAEVKKPGASVKVSCKASGYTFTRYTMHWVRQAPGQGLEWMGYINPSRGYTNYNQKFKDRVTLTTDKSSSTAYMELSSLRSEDTAVYYCARYYDDHYSLDYWGQGTLVTVSSASTKGPSVFPLAPSSKSTSGGTAALGCLVKDYFPEPVTVSWNSGALTSGVHTFPAVLQSSGLYSLSSVVTVPSSSLGTQTYICNVNHKPSNTKVDKRVEPKSCDKTHTCPPCPAPELLGGPSVFLFPPKPKDTLMISRTPEVTCVVVDVSHEDPEVKFNWYVDGVEVHNAKTKPREEQYQSTYRVVSVLTVLHQDWLNGKEYKCKVSNKALPAPIEKTISKAKGQPREPQVCTLPPSREEMTKNQVSLSCAVKGFYPSDIAVEWESNGQPENNYKTTPPVLDSDGSFFLVSKLTVDKSRWQQGNVFSCSVMHEALHNRFTQKSLSLSPGK
light: B7 light
notes: format 4; its Fc may differ; also called 4-G2(1H11)-hOKT3; Format 4 G2(1H11) without the DSB

EC50 (read off the curve) [8]: ~1 nM
Kd [9]: 16.1 nM
koff [9]: 0.00652 s⁻¹
kon [9]: 405000 M⁻¹ s⁻¹
Kd [10]: 2.2 nM
koff [10]: 0.00279 s⁻¹
kon [10]: 1.27e+06 M⁻¹ s⁻¹
B9: 4-G5(1C12)_10AAL hOKT3a (bispecific antibody)
chain: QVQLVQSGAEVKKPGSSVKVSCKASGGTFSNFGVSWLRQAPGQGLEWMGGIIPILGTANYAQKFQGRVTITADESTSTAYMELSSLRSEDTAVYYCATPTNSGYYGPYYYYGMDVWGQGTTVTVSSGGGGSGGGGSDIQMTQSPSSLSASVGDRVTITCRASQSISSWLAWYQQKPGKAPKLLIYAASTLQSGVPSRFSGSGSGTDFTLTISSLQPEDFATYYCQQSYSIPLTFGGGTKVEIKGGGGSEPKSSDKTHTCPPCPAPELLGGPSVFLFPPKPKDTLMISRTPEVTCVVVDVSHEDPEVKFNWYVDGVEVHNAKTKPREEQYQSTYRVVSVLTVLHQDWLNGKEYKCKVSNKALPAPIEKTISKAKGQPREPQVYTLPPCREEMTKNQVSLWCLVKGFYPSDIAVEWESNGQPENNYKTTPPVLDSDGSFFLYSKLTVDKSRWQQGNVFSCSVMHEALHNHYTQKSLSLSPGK
heavy: QVQLVQSGAEVKKPGSSVKVSCKASGGTFSNFGVSWLRQAPGQGLEWMGGIIPILGTANYAQKFQGRVTITADESTSTAYMELSSLRSEDTAVYYCATPTNSGYYGPYYYYGMDVWGQGTTVTVSSGGGGSGGGGSDIQMTQSPSSLSASVGDRVTITCRASQSISSWLAWYQQKPGKAPKLLIYAASTLQSGVPSRFSGSGSGTDFTLTISSLQPEDFATYYCQQSYSIPLTFGGGTKVEIKGGGGSGGGGSQVQLVQSGAEVKKPGASVKVSCKASGYTFTRYTMHWVRQAPGQGLEWMGYINPSRGYTNYNQKFKDRVTLTTDKSSSTAYMELSSLRSEDTAVYYCARYYDDHYSLDYWGQGTLVTVSSASTKGPSVFPLAPSSKSTSGGTAALGCLVKDYFPEPVTVSWNSGALTSGVHTFPAVLQSSGLYSLSSVVTVPSSSLGTQTYICNVNHKPSNTKVDKRVEPKSCDKTHTCPPCPAPELLGGPSVFLFPPKPKDTLMISRTPEVTCVVVDVSHEDPEVKFNWYVDGVEVHNAKTKPREEQYQSTYRVVSVLTVLHQDWLNGKEYKCKVSNKALPAPIEKTISKAKGQPREPQVCTLPPSREEMTKNQVSLSCAVKGFYPSDIAVEWESNGQPENNYKTTPPVLDSDGSFFLVSKLTVDKSRWQQGNVFSCSVMHEALHNRFTQKSLSLSPGK
light: B7 light
notes: format 4 diabody; also called G5(1C12)-hOKT3a Format 4 with shortened linkers

EC50 [5]: 1750 nM
Kd [6]: 35.1 nM
koff [7]: 0.025 s⁻¹
B10: 4-hOKT3-G2(1H11) with engineered H44/L100 disulfide bond (bispecific antibody, human IgG1, kappa, N297Q)
chain: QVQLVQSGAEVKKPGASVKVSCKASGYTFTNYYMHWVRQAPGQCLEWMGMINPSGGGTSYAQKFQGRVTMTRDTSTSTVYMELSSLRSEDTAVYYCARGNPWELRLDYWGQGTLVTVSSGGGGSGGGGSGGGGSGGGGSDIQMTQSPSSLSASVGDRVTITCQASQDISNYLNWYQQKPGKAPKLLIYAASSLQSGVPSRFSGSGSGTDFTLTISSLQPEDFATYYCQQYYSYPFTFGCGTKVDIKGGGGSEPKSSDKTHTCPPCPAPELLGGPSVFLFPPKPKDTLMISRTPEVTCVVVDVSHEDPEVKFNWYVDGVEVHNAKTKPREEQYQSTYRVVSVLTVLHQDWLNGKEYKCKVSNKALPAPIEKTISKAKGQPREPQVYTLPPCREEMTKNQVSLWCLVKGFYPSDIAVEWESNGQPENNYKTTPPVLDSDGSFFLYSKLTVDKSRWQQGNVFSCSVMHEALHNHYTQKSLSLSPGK
heavy: B8 heavy with G44C, P239C
light: B7 light
notes: also called G2(1H11)-hOKT3_DSBH44/L100 Format 4; G2 Format 4 with the DSB

binding result [1]: binds
B11: G7(1B04) scFv (scFv, V domains shown)
VH: QVQLVQSGAEVKKPGASVKVSCKASGYTFSNYYIHWVRQAPGQGLEWMGWLNPNSGNTGYAQRFQGRVTMTRDTSTSTVYMELSSLRSEDTAVYYCARDLMTTVVTPGDYGMDVWGQGTTVTVSS
VL: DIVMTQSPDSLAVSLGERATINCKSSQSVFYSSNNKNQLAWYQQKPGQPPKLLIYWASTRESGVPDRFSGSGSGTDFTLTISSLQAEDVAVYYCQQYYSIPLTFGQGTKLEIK
